# The supplement of paper PMC10567573
# B1: KLHDC10 (parent)
# chain: CPIIRIPNRFLRGHRPPPARSGHR
# Variants of: B1
# Experiment: protein stability index of a GFP-peptide fusion (GPS, HEK-293T) (PSI 1-6); higher = more stable
# Settings: c terminus: a fixed tail appended
# 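Further: lentivirally expressed fusions sorted by FACS into six bins by GFP to DsRed ratio, PSI derived from sequencing read proportions per bin multiplied by bin number.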
row,Variant,protein stability index
1,CPIIRIPNRFLRGHRPPVARSGHR [P18V],2.27
2,CPIIRIPNRFLRGHRPPRARSGHR [P18R],1.63
3,CPIIRIPNRFLRYHRPPPARSGHR [G13Y],1.88
4,CPIIRIPNRFLRAHRPPPARSGHR [G13A],2.21
5,CPIIRIPNRFLRLHRPPPARSGHR [G13L],1.85
6,CPIIRIPNRFLRMHRPPPARSGHR [G13M],1.9
7,CPIIRIPNRFLRHHRPPPARSGHR [G13H],1.98
8,CPIIRIPNRFLRRHRPPPARSGHR [G13R],1.74
9,CPIIRIPNRFLRFHRPPPARSGHR [G13F],1.81
10,CPIIRIPNRFLRPHRPPPARSGHR [G13P],1.48
11,CPIIRIPNRFLRQHRPPPARSGHR [G13Q],2.36
12,CPIIRIPNRFLREHRPPPARSGHR [G13E],1.38
13,CPIIRIPNRFLRDHRPPPARSGHR [G13D],1.55
14,CPIIRIPNRRLRGHRPPPARSGHR [F10R],2.65
15,CPIIRIPNRMLRGHRPPPARSGHR [F10M],1.82
16,CPIIRIPNRVLRGHRPPPARSGHR [F10V],1.4
17,CPIIRIPNRELRGHRPPPARSGHR [F10E],1.71
18,CPIIRIPNRHLRGHRPPPARSGHR [F10H],2.25
19,CPIIRIPNRALRGHRPPPARSGHR [F10A],2.85
20,CPIIRIPNRILRGHRPPPARSGHR [F10I],2.46
21,CPIDRIPNRFLRGHRPPPARSGHR [I4D],4.49
22,CPIYRIPNRFLRGHRPPPARSGHR [I4Y],3.02
23,CPIERIPNRFLRGHRPPPARSGHR [I4E],4.56
24,CPICRIPNRFLRGHRPPPARSGHR [I4C],2.31

row,Variant,protein stability index
1,CPIQRIPNRFLRGHRPPPARSGHR [I4Q],3.94
2,CPINRIPNRFLRGHRPPPARSGHR [I4N],4.38
3,CPIARIPNRFLRGHRPPPARSGHR [I4A],2.7
4,CPIMRIPNRFLRGHRPPPARSGHR [I4M],1.86
5,CPIPRIPNRFLRGHRPPPARSGHR [I4P],4.21
6,CPILRIPNRFLRGHRPPPARSGHR [I4L],2.4
7,CPIIRIPNRFLRGHRPPPARSGVR [H23V],1.69
8,CPIIRIPNRFLRGHRPPPARSGYR [H23Y],2.01
9,CPIIRIPNRFLRGHRPPPARSGSR [H23S],1.02
10,CPIIRIPNRFLRGHRPPPARSGQR [H23Q],2.06
11,CPIIRIPNRFLRGHRPPPARSGLR [H23L],1.12
12,CPIIRIPNRFLRGHRPPPARSGTR [H23T],2.66
13,CPIIRIPNRFLRGHRPPPARSGNR [H23N],2.43
14,CPIIRIPNRFLRGHRPPPARSGMR [H23M],1.49
15,CPIIRIPNRFCRGHRPPPARSGHR [L11C],1.4
16,CPIIRIPNRFKRGHRPPPARSGHR [L11K],3.08
17,CPIIRIPNRFYRGHRPPPARSGHR [L11Y],2
18,CPIIRIPNRFQRGHRPPPARSGHR [L11Q],1.35
19,CPIIRIPNRFGRGHRPPPARSGHR [L11G],2.3
20,CPIIRIPNRFERGHRPPPARSGHR [L11E],1.31
21,CPIIRIPNRFWRGHRPPPARSGHR [L11W],1.7
22,CPIIRIPNRFVRGHRPPPARSGHR [L11V],2.83
23,CPIIRIPNRFMRGHRPPPARSGHR [L11M],2.89
24,CPIIRIPNRFLRGHRHPPARSGHR [P16H],1.92

row,Variant,protein stability index
1,CPIIRIPNRFLRGHRTPPARSGHR [P16T],2.38
2,CPIIRIPNRFLRGHRRPPARSGHR [P16R],1.2
3,CPIIRIPNRFLRGHRLPPARSGHR [P16L],1.85
4,CPIIRIPNRFLRGHRNPPARSGHR [P16N],2.56
5,CPIIRIPNRFLRGHRVPPARSGHR [P16V],1.23
6,RPIIRIPNRFLRGHRPPPARSGHR [C1R],3.57
7,LPIIRIPNRFLRGHRPPPARSGHR [C1L],2.68
8,IPIIRIPNRFLRGHRPPPARSGHR [C1I],3.59
9,SPIIRIPNRFLRGHRPPPARSGHR [C1S],3.41
10,QPIIRIPNRFLRGHRPPPARSGHR [C1Q],4.42
11,CPIIRIPNRFLRGHRPPPARLGHR [S21L],1.97
12,CPIIRIPNRFLRGHRPPPARWGHR [S21W],1.83
13,CPIIRIPNRFLRGHRPPPARRGHR [S21R],1.97
14,CPIIRIPNRFLRGHRPPPARTGHR [S21T],1.83
15,CPIIRIPNRFLRGHRPPPARFGHR [S21F],2.91
16,CPIIRIPNRFLRGHRPPPARQGHR [S21Q],1.42
17,CPIIRIPNRFLRGHRPPPARAGHR [S21A],1.85
18,CPIIRSPNRFLRGHRPPPARSGHR [I6S],2.04
19,CPIIRGPNRFLRGHRPPPARSGHR [I6G],3.96
20,CPIIRYPNRFLRGHRPPPARSGHR [I6Y],4.09
21,CPIIRMPNRFLRGHRPPPARSGHR [I6M],2.64
22,CPIIRNPNRFLRGHRPPPARSGHR [I6N],4.01
23,CPIIRLPNRFLRGHRPPPARSGHR [I6L],4.07
24,CPIIREPNRFLRGHRPPPARSGHR [I6E],3.98

row,Variant,protein stability index
1,CPIIRRPNRFLRGHRPPPARSGHR [I6R],3.69
2,CPIIRAPNRFLRGHRPPPARSGHR [I6A],3.29
3,CPIIRKPNRFLRGHRPPPARSGHR [I6K],3.37
4,CPIIRPPNRFLRGHRPPPARSGHR [I6P],4.35
5,CPIIRIPNRFLIGHRPPPARSGHR [R12I],2.32
6,CPIIRIPNRFLKGHRPPPARSGHR [R12K],2.09
7,CPIIRIPNRFLDGHRPPPARSGHR [R12D],1.92
8,CPIIRIPNRFLCGHRPPPARSGHR [R12C],1.28
9,CPIIRIPNRFLHGHRPPPARSGHR [R12H],2.69
10,CPIIRIPNRFLEGHRPPPARSGHR [R12E],2.47
11,CPIIRIPNRFLPGHRPPPARSGHR [R12P],1.63
12,CPIIRIPNRFLQGHRPPPARSGHR [R12Q],2.07
13,CPIIRIPMRFLRGHRPPPARSGHR [N8M],1.97
14,CPIIRIPARFLRGHRPPPARSGHR [N8A],1.46
15,CPIIRIPKRFLRGHRPPPARSGHR [N8K],2.42
16,CPIIRIPLRFLRGHRPPPARSGHR [N8L],2.21
17,CPIIRIPTRFLRGHRPPPARSGHR [N8T],2.52
18,CPIIRIPIRFLRGHRPPPARSGHR [N8I],2.36
19,CPIIRIPYRFLRGHRPPPARSGHR [N8Y],2.07
20,CPIIRIPVRFLRGHRPPPARSGHR [N8V],2.79
21,CPIIRIPRRFLRGHRPPPARSGHR [N8R],2.54
22,CPIIRIPFRFLRGHRPPPARSGHR [N8F],1.81
